Data on five molecules can be found in US20140087995A1 (published 2014).

In one assay the target is T1, rat calcitonin receptor (rat, UniProt P32214 25-516).
T1 construct: whole, on cells; Used as membranes prepared from the transfected cells (Assay VIII); also called rCTR; rat calcitonin (a) receptor
T1 sequence (looked up): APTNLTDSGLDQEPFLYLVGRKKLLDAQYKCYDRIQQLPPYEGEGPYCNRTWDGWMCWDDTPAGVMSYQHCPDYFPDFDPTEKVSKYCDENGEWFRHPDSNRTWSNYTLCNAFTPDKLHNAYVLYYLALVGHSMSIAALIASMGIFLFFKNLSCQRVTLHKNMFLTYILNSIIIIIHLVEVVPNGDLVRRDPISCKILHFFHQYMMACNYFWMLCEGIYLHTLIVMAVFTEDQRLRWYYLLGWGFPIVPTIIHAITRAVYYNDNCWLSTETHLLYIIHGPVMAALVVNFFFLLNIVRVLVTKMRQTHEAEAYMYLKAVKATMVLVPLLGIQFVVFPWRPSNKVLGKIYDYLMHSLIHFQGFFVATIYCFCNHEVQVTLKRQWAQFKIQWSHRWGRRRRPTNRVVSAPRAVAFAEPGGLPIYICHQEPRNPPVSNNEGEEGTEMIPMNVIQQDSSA
The assay is described as follows: SPA competition binding, displacement of 125I-calcitonin from membranes of BHK tk'ts 13 cells transfected with rat calcitonin receptor (Assay VIII).

The target of assay [1] is T2, rat amylin receptor (rat calcitonin receptor + rat RAMP 3) (rat, UniProt P32214 25-516; Q9JJ73 23-147).
T2 construct: whole, on cells; Used as membranes prepared from the transfected cells (Assay VI); also called rAmylin-R; rat amylin 3(a) receptor
T2 sequence (looked up) 1: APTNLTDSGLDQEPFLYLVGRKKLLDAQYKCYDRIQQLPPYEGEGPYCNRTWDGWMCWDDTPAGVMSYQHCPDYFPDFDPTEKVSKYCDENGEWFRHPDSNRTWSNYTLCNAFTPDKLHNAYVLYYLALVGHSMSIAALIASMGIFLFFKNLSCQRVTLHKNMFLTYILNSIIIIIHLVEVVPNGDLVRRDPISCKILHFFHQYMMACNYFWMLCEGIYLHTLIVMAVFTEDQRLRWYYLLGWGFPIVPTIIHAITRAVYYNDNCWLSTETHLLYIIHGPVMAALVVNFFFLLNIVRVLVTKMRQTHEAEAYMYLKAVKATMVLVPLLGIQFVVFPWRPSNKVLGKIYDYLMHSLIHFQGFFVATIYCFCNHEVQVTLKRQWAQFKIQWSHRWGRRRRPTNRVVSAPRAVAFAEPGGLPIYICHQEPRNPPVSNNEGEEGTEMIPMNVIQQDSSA
T2 sequence (looked up) 2: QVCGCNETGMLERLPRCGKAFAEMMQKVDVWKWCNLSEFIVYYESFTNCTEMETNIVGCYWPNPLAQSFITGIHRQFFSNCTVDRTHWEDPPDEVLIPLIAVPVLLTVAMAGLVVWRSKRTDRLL
As to the kind of experiment: SPA competition binding, displacement of 125I-rat amylin from membranes of BHK tk'ts 13 cells transfected with rat calcitonin receptor + rat RAMP 3 (Assay VI).

For assay [2], the target named is T3, human calcitonin receptor (human, UniProt P30988 25-474).
T3 sequence (looked up): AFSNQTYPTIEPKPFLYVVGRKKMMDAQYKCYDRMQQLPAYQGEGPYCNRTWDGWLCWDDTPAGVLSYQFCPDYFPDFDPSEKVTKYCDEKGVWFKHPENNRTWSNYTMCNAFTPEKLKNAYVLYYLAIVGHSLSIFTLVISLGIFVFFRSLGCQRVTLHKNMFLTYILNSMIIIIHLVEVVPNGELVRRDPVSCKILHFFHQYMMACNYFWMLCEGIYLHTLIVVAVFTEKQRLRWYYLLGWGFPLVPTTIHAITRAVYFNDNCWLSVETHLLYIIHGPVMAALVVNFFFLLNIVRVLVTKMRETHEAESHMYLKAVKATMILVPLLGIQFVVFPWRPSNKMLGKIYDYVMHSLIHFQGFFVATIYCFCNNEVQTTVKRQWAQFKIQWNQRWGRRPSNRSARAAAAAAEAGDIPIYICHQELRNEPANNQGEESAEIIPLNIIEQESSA
As to the kind of experiment: cell-based or functional assay.

Numbered stars: 1 amine (or outer) side, 2 acyl side, 3 side chain; on linkers, the order of the positions; unused ones are H or OH. Bridge positions count the residues as written; N and C are the ends. Square brackets hold non-standard residues; d marks the D form. Side chains are listed from the residue outwards. Ends that are not written are not given here. * marks the point of attachment. C20 diacid = O=C(O)CCCCCCCCCCCCCCCCCCC(=O)*; γGlu = O=C(O)[C@H](CCC(=O)[*:2])N[*:1]

B1: N^ε1-[(4S)-4-carboxy-4-[[(4S)-4-carboxy-4-(19-carboxynonadecanoylamino)butanoyl]amino]butanoyl]-[D-Asp14,Arg17,Pro21,Pro27,Arg35]-h-amylin (peptide)
peptide: K([γGlu-γGlu-C20 diacid])CNTATCATQRLA[dD]FLRHSSPNFGAIPSSTNVGSRTY-NH2
modifications: disulfide 2-7; N-terminus assumed
SMILES: CC[C@H](C)[C@H](NC(=O)[C@H](C)NC(=O)CNC(=O)[C@H](Cc1ccccc1)NC(=O)[C@H](CC(N)=O)NC(=O)[C@@H]1CCCN1C(=O)[C@H](CO)NC(=O)[C@H](CO)NC(=O)[C@H](Cc1c[nH]cn1)NC(=O)[C@H](CCCNC(=N)N)NC(=O)[C@H](CC(C)C)NC(=O)[C@H](Cc1ccccc1)NC(=O)[C@@H](CC(=O)O)NC(=O)[C@H](C)NC(=O)[C@H](CC(C)C)NC(=O)[C@H](CCCNC(=N)N)NC(=O)[C@H](CCC(N)=O)NC(=O)[C@@H](NC(=O)[C@H](C)NC(=O)[C@@H]1CSSC[C@H](NC(=O)[C@@H](N)CCCCNC(=O)CC[C@H](NC(=O)CC[C@H](NC(=O)CCCCCCCCCCCCCCCCCCC(=O)O)C(=O)O)C(=O)O)C(=O)N[C@@H](CC(N)=O)C(=O)N[C@@H]([C@@H](C)O)C(=O)N[C@@H](C)C(=O)N[C@@H]([C@@H](C)O)C(=O)N1)[C@@H](C)O)C(=O)N1CCC[C@H]1C(=O)N[C@@H](CO)C(=O)N[C@@H](CO)C(=O)N[C@H](C(=O)N[C@@H](CC(N)=O)C(=O)N[C@H](C(=O)NCC(=O)N[C@@H](CO)C(=O)N[C@@H](CCCNC(=N)N)C(=O)N[C@H](C(=O)N[C@@H](Cc1ccc(O)cc1)C(N)=O)[C@@H](C)O)C(C)C)[C@@H](C)O
notes: not restated for each compound
For B1, the IC50 in the assay with rat calcitonin receptor turned out to be 536 nM; in assay [1], 1.69 nM. Turning to KCNTATCATQRLADFLRHSSPNFGAIPSSTNVGSRTY-NH2 (disulfide 2-7) [[Asp14,Arg17,Pro21,Pro27,Arg35]-h-amylin], the IC50 in the assay with rat calcitonin receptor came out at 30.9 nM.

B2: N^ε1-[(4S)-4-carboxy-4-[[(4S)-4-carboxy-4-(19-carboxynonadecanoylamino)butanoyl]amino]butanoyl]-[Ser14,Arg17,Pro21,Pro27,Pro34,Glu35]-h-amylin (peptide)
peptide: K([γGlu-γGlu-C20 diacid])CNTATCATQRLASFLRHSSPNFGAIPSSTNVGPETY-NH2
modifications: disulfide 2-7; N-terminus assumed
SMILES: CC[C@H](C)[C@H](NC(=O)[C@H](C)NC(=O)CNC(=O)[C@H](Cc1ccccc1)NC(=O)[C@H](CC(N)=O)NC(=O)[C@@H]1CCCN1C(=O)[C@H](CO)NC(=O)[C@H](CO)NC(=O)[C@H](Cc1c[nH]cn1)NC(=O)[C@H](CCCNC(=N)N)NC(=O)[C@H](CC(C)C)NC(=O)[C@H](Cc1ccccc1)NC(=O)[C@H](CO)NC(=O)[C@H](C)NC(=O)[C@H](CC(C)C)NC(=O)[C@H](CCCNC(=N)N)NC(=O)[C@H](CCC(N)=O)NC(=O)[C@@H](NC(=O)[C@H](C)NC(=O)[C@@H]1CSSC[C@H](NC(=O)[C@@H](N)CCCCNC(=O)CC[C@H](NC(=O)CC[C@H](NC(=O)CCCCCCCCCCCCCCCCCCC(=O)O)C(=O)O)C(=O)O)C(=O)N[C@@H](CC(N)=O)C(=O)N[C@@H]([C@@H](C)O)C(=O)N[C@@H](C)C(=O)N[C@@H]([C@@H](C)O)C(=O)N1)[C@@H](C)O)C(=O)N1CCC[C@H]1C(=O)N[C@@H](CO)C(=O)N[C@@H](CO)C(=O)N[C@H](C(=O)N[C@@H](CC(N)=O)C(=O)N[C@H](C(=O)NCC(=O)N1CCC[C@H]1C(=O)N[C@@H](CCC(=O)O)C(=O)N[C@H](C(=O)N[C@@H](Cc1ccc(O)cc1)C(N)=O)[C@@H](C)O)C(C)C)[C@@H](C)O
notes: also called compound 120
Take B2: in assay [2], the “hCTR funct. EC50 (pM)” value was 887 pM.

B3: N^-1-[(4S)-4-carboxy-4-(19-carboxynonadecanoylamino)butanoyl]-Gly[Arg1,His14,Arg17,Pro21,Pro27,His34]-h-amylin (peptide)
peptide: {C20 diacid-γGlu}-GRCNTATCATQRLAHFLRHSSPNFGAIPSSTNVGHNTY-NH2
modifications: disulfide 3-8
SMILES: CC[C@H](C)[C@H](NC(=O)[C@H](C)NC(=O)CNC(=O)[C@H](Cc1ccccc1)NC(=O)[C@H](CC(N)=O)NC(=O)[C@@H]1CCCN1C(=O)[C@H](CO)NC(=O)[C@H](CO)NC(=O)[C@H](Cc1c[nH]cn1)NC(=O)[C@H](CCCNC(=N)N)NC(=O)[C@H](CC(C)C)NC(=O)[C@H](Cc1ccccc1)NC(=O)[C@H](Cc1c[nH]cn1)NC(=O)[C@H](C)NC(=O)[C@H](CC(C)C)NC(=O)[C@H](CCCNC(=N)N)NC(=O)[C@H](CCC(N)=O)NC(=O)[C@@H](NC(=O)[C@H](C)NC(=O)[C@@H]1CSSC[C@H](NC(=O)[C@H](CCCNC(=N)N)NC(=O)CNC(=O)CC[C@H](NC(=O)CCCCCCCCCCCCCCCCCCC(=O)O)C(=O)O)C(=O)N[C@@H](CC(N)=O)C(=O)N[C@@H]([C@@H](C)O)C(=O)N[C@@H](C)C(=O)N[C@@H]([C@@H](C)O)C(=O)N1)[C@@H](C)O)C(=O)N1CCC[C@H]1C(=O)N[C@@H](CO)C(=O)N[C@@H](CO)C(=O)N[C@H](C(=O)N[C@@H](CC(N)=O)C(=O)N[C@H](C(=O)NCC(=O)N[C@@H](Cc1c[nH]cn1)C(=O)N[C@@H](CC(N)=O)C(=O)N[C@H](C(=O)N[C@@H](Cc1ccc(O)cc1)C(N)=O)[C@@H](C)O)C(C)C)[C@@H](C)O
notes: 38 residues; also called compound 100
Take B3: the “hCTR funct. EC50 (pM)” value in assay [2] was 1730 pM.

B4: N^-1-[(4S)-4-carboxy-4-(19-carboxynonadecanoylamino)butanoyl]-Gly[Arg1,Ala14,Arg17,Pro21,Pro27,His34]-h-amylin (peptide)
peptide: {C20 diacid-γGlu}-GRCNTATCATQRLAAFLRHSSPNFGAIPSSTNVGHNTY-NH2
modifications: disulfide 3-8
SMILES: CC[C@H](C)[C@H](NC(=O)[C@H](C)NC(=O)CNC(=O)[C@H](Cc1ccccc1)NC(=O)[C@H](CC(N)=O)NC(=O)[C@@H]1CCCN1C(=O)[C@H](CO)NC(=O)[C@H](CO)NC(=O)[C@H](Cc1c[nH]cn1)NC(=O)[C@H](CCCNC(=N)N)NC(=O)[C@H](CC(C)C)NC(=O)[C@H](Cc1ccccc1)NC(=O)[C@H](C)NC(=O)[C@H](C)NC(=O)[C@H](CC(C)C)NC(=O)[C@H](CCCNC(=N)N)NC(=O)[C@H](CCC(N)=O)NC(=O)[C@@H](NC(=O)[C@H](C)NC(=O)[C@@H]1CSSC[C@H](NC(=O)[C@H](CCCNC(=N)N)NC(=O)CNC(=O)CC[C@H](NC(=O)CCCCCCCCCCCCCCCCCCC(=O)O)C(=O)O)C(=O)N[C@@H](CC(N)=O)C(=O)N[C@@H]([C@@H](C)O)C(=O)N[C@@H](C)C(=O)N[C@@H]([C@@H](C)O)C(=O)N1)[C@@H](C)O)C(=O)N1CCC[C@H]1C(=O)N[C@@H](CO)C(=O)N[C@@H](CO)C(=O)N[C@H](C(=O)N[C@@H](CC(N)=O)C(=O)N[C@H](C(=O)NCC(=O)N[C@@H](Cc1c[nH]cn1)C(=O)N[C@@H](CC(N)=O)C(=O)N[C@H](C(=O)N[C@@H](Cc1ccc(O)cc1)C(N)=O)[C@@H](C)O)C(C)C)[C@@H](C)O
notes: 38 residues
On to B4, for which the “hCTR funct. EC50 (pM)” value in assay [2] came to 537 pM.

As a reminder, the IC50 is the concentration needed to halve the response being measured.
